From article PMC6956557, “Preclinical development of a novel CD47 nanobody with less toxicity and enhanced anti-cancer therapeutic potential” (Journal of Nanobiotechnology, 2020) come the findings set out here.

One assay has as its target T1, hCD47 (ECD)-Fc (Homo sapiens, UniProt Q08722).
T1 construct: human CD47 ectodomain (ECD), residues 20-136; Cloned into a pFUSE vector; also called human CD47 (ECD)-Fc; recombinant hCD47 antigen
The assay can be described thus: ELISA; 5 μg/mL CD47 (ECD)-Fc proteins coated overnight at 4 °C, 1% BSA block, 10 μg/mL Nb for 1 h at room temperature; mouse anti-HA and anti-mouse IgG-alkaline phosphatase, A405. The conditions noted are these: both partners purified. (In general: ELISA stands for enzyme-linked immunosorbent assay.)

A further assay concerns the target T2, rat CD47 (ECD)-Fc (Rattus norvegicus, UniProt P97829).
T2 construct: rat CD47 ectodomain (ECD); source: HEK-293F, purified
The description is as above. The conditions noted are these: both partners purified.

The target in a further assay is T3, mouse CD47 (ECD)-Fc (Mus musculus, UniProt Q61735).
T3 construct: mouse CD47 ectodomain (ECD); source: HEK-293F, purified
The description is as above. The settings on record: both partners purified.

For assay [1], the target named is T4, human CD47 on the surface of cells (human (endogenous in Raji), UniProt Q08722).
T4 construct: human CD47 (integrin-associated protein) on the cell surface; also called hCD47; CD47 expressed on Raji cells; source: endogenous, on Raji cells; endogenous, on human RBCs of healthy donors
T4 sequence (Q08722 19-323): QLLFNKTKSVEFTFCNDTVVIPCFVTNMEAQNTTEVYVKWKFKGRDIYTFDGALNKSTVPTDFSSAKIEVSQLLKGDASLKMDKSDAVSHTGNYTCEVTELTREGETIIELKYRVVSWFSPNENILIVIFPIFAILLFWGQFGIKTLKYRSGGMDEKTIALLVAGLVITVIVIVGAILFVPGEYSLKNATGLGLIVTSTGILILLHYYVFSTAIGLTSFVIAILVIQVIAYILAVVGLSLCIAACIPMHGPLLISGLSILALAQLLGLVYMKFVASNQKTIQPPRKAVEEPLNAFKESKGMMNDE
The assay can be described thus: flow cytometry on cells; competition: Raji cells co-incubated with HuNb1-biotin or Rituximab-biotin and unlabelled antibody; streptavidin-PE. The conditions noted are these: one partner purified. For orientation: A flow cytometer gives signals particle by particle.

T1 sequence (Q08722 20-136): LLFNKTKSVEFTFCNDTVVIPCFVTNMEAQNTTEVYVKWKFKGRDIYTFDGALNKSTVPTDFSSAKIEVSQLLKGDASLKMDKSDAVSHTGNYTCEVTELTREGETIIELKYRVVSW

B1: HuNb1 (VHH)
VHH: QVQLQESGGGLVQPGGSLRLSCAASGYAYTSDCMGWFRQTPGKGLEGVALIYTPGNSTNYADSVKGRFTISQDNSKSTVYLQMNSLRAEDTAMYYCAARRGACSLRLPFFYWGQGTLVTVSS
notes: as the VHH of m1; The nanobody alone as used in the ELISA, detected by an anti-HA antibody; also called CD47 Nb; source: E. coli WK6 (pMECS), purified (Ni-sepharose)
Take B1: the binding result with hCD47 (ECD)-Fc is given as “binds”; with rat CD47 (ECD)-Fc, “no binding (tested: 10 μg/mL)”; with mouse CD47 (ECD)-Fc, “no binding (tested: 10 μg/mL)”.

B2: HuNb1-biotin (VHH)
VHH: QVQLQESGGGLVQPGGSLRLSCAASGYAYTSDCMGWFRQTPGKGLEGVALIYTPGNSTNYADSVKGRFTISQDNSKSTVYLQMNSLRAEDTAMYYCAARRGACSLRLPFFYWGQGTLVTVSS
notes: as the VHH of m1
As to B2, the binding result in assay [1] is “binds”.
